In paper PMC6168597, “Mutations at the hydrophobic core affect Hal3 trimer stability, reducing its Ppz1 inhibitory capacity but not its PPCDC moonlighting function” (Scientific Reports, 2018):
Numbering of substitutions follows the chain as printed. Names and notes keep the numbering of the source.

T1: GST-fused full length Ppz1 (S. cerevisiae, UniProt P26570 1-692)
T1 construct: Ser/Thr protein phosphatase Ppz1, S. cerevisiae, full length; also called GST-Ppz1; source: E. coli BL21 (DE3) RIL, purified on glutathione-agarose
T1 sequence (looked up): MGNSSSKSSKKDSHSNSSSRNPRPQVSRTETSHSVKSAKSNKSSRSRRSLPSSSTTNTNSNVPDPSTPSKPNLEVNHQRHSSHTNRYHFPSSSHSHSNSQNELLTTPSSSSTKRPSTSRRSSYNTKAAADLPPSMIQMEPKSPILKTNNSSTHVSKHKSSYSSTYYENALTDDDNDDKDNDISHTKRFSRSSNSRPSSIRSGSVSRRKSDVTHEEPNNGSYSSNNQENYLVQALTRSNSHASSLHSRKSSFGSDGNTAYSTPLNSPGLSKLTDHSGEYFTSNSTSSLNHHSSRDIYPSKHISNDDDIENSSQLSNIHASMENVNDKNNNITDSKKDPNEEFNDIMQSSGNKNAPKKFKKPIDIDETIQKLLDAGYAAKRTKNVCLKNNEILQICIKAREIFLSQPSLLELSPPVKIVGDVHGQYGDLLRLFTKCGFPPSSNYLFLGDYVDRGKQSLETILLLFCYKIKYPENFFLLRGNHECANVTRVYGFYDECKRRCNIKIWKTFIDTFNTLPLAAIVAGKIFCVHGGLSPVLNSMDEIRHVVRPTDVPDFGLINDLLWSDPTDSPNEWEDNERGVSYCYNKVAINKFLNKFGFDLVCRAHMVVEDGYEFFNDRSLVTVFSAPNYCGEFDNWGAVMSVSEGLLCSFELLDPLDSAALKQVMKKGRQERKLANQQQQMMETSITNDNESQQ

B1: Arabidopsis thaliana Hal3 (AtHal3a), native, recombinant, GST removed (enzyme, UniProt Q9SWE5 1-209, looked up)
chain: MENGKRDRQDMEVNTTPRKPRVLLAASGSVAAIKFGNLCHCFTEWAEVRAVVTKSSLHFLDKLSLPQEVTLYTDEDEWSSWNKIGDPVLHIELRRWADVLVIAPLSANTLGKIAGGLCDNLLTCIIRAWDYTKPLFVAPAMNTLMWNNPFTERHLLSLDELGITLIPPIKKRLACGDYGNGAMAEPSLIYSTVRLFWESQAHQQTGGTS
notes: AtHal3a, Arabidopsis thaliana, wild type ORF amplified from the AtHal3a cDNA and cloned into pGEX-6P-1; Flavoprotein (FMN); Theoretical mass of the trimer ~69 kDa; also called native AtHal3; source: E. coli BL21 (DE3) RIL, GST fusion purified on glutathione-agarose, GST cleaved with PreScission protease
B2: AtHal3 L117E, recombinant, GST removed (enzyme, Arabidopsis thaliana, UniProt Q9SWE5 1-209, looked up)
chain: B1 chain with L117E
notes: AtHal3a, Arabidopsis thaliana, ORF in pGEX-6P-1 with L117E; source: E. coli BL21 (DE3) RIL, GST fusion purified on glutathione-agarose, GST cleaved with PreScission protease
B3: AtHal3 G115N L117E, recombinant, GST removed (enzyme, Arabidopsis thaliana, UniProt Q9SWE5 1-209, looked up)
chain: B1 chain with G115N, L117E
notes: AtHal3a, Arabidopsis thaliana, ORF in pGEX-6P-1 with G115N and L117E; source: E. coli BL21 (DE3) RIL, GST fusion purified on glutathione-agarose, GST cleaved with PreScission protease
B4: S. cerevisiae Hal3 (ScHal3), native, recombinant, GST removed (natural protein, UniProt P36024 1-562, looked up)
chain: MTAVASTSGKQDADHNQSIECPRFSRGQKEILLDHEDAKGKDSIINSPVSGRQSISPTLSNATTTTTKSIMNATGTSGAVVSNTPEPGLKRVPAVTFSDLKQQQKQDSLTQLKNDSERTKSPNSNPAPVSNSIPGNHAVIPNHTNTSRTTQLSGSPLVNEMKDYDPKKKDSALKIVDTMKPDKIMATSTPISRENNKVTAKAPTSITLRKEDAQDQANNVSGQINVRSTPEETPVKQSVIPSIIPKRENSKNLDPRLPQDDGKLHVLFGATGSLSVFKIKPMIKKLEEIYGRDRISIQVILTQSATQFFEQRYTKKIIKSSEKLNKMSQYESTPATPVTPTPGQCNMAQVVELPPHIQLWTDQDEWDAWKQRTDPVLHIELRRWADILVVAPLTANTLSKIALGLCDNLLTSVIRAWNPSYPILLAPSMVSSTFNSMMTKKQLQTIKEEMSWVTVFKPSEKVMDINGDIGLGGMMDWNEIVNKIVMKLGGYPKNNEEEDDDEDEEEDDDEEEDTEDKNENNNDDDDDDDDDDDDDDDDDDDDDDDDEDEDEAETPGIIDKHQ
notes: the methods speak of 'each full-length recombinant protein' and the predicted homotrimer is ~190 kDa; also called native ScHal3; WT; source: E. coli BL21 (DE3) RIL, GST fusion purified on glutathione-agarose, GST cleaved with PreScission protease
B5: ScHal3 L403N, recombinant, GST removed (natural protein, S. cerevisiae, UniProt P36024 1-562, looked up)
chain: B4 chain with L403N
notes: Hal3 (Sis2), S. cerevisiae, in pGEX-6P-1 with L403N; also called the L403 variant; source: E. coli BL21 (DE3) RIL, GST fusion purified on glutathione-agarose, GST cleaved with PreScission protease
B6: HA-tagged ScHal3 L403N L405E expressed in S. cerevisiae from pWS93 (natural protein, UniProt P36024 1-562, looked up)
chain: B4 chain with L403N, L405E
notes: Hal3 (Sis2), S. cerevisiae, with L403N and L405E; insert released from the pGEX construct and cloned into pWS93; also called the double mutated variant; source: S. cerevisiae IM021 (ppz1 hal3), expressed from pWS93, in protein extract
B7: HA-tagged ScHal3 L405E expressed in S. cerevisiae from pWS93 (natural protein, UniProt P36024 1-562, looked up)
chain: B4 chain with L405E
notes: Hal3 (Sis2), S. cerevisiae, with L405E; insert released from the pGEX construct and cloned into pWS93; source: S. cerevisiae IM021 (ppz1 hal3), expressed from pWS93, in protein extract

Target: the molecule itself
Assay: cross-linking; purified GST-free proteins (1 or 2 ug) treated with 0.01% glutaraldehyde, SDS-PAGE, Coomassie staining
Conditions: not given
For B1, the “stoichiometry N” value was 3. In the case of B2, the “stoichiometry N” value is reported as 3. For B3, the “stoichiometry N” value was 3. B4 was tested, and the “stoichiometry N” value was 3. In the case of B5, the “stoichiometry N” value is reported as 3.

What follows are binders tested against T1, GST-fused full length Ppz1 (assay: pull-down; 4 ug GST-Ppz1 or GST-Ppz1-Cter on glutathione-agarose beads, 600 ug protein extract of IM021 yeast expressing HA-tagged ScHal3 versions, anti-HA immunoblot; signal related to Ponceau-stained bait, native ScHal3 as the unit). Conditions: one partner purified.
With B6 the “interaction relative to native ScHal3” value was roughly 50%. B7 was tested, and the “interaction relative to native ScHal3” value was roughly 50%.
